We go through 33 molecules from paper PMC9352680, “A comprehensive thermodynamic model for RNA binding by the Saccharomyces cerevisiae Pumilio protein PUF4”.

To fix the notation:
B1: Ib_S2_P4E.1_K4.1_C4.1_H4.1_A4.1_[T7A]_F4.1_[T8C]_T4.1 (ssRNA)
RNA: UUUGAUUAAUAUGAUAUCGUUCUUUCUUGUAUAACAUUCUUUCUCGAUAUCAUAUUAAUCUUU
B2: Ib_S2_P4E.1_K4.1_C4.1_H4.1_[T1G]_[T3C]_A4.1_F4.1_T4.1 (ssRNA)
RNA: UUUGAUUAAUAUGAUAUCGUUCUUUCUGGCAUAUUAUUCUUUCUCGAUAUCAUAUUAAUCUUU
B3: Ic_S2_P4E.1_K4.1_C4.1_H4.1_A4.1_F4.1_[A9T]_T4.1 (ssRNA)
RNA: UUUGAUUAAUAUGAUAUCGUUCUUUCUUGUAUAUUUUUCUUUCUCGAUAUCAUAUUAAUCUUU
B4: Ib_S2_P4E.1_K4.1_C4.1_H4.1_[T1G]_[A4G]_A4.1_F4.1_T4.1 (ssRNA)
RNA: UUUGAUUAAUAUGAUAUCGUUCUUUCUGGUGUAUUAUUCUUUCUCGAUAUCAUAUUAAUCUUU
B5: Ic_S2_P4E.1_K4.1_C4.1_H4.1_A4.1_[T7C]_F4.1_[T8A]_T4.1 (ssRNA)
RNA: UUUGAUUAAUAUGAUAUCGUUCUUUCUUGUAUACAAUUCUUUCUCGAUAUCAUAUUAAUCUUU
B6: Ib_S2_P4E.1_K4.1_C4.1_H4.1_A4.1_[A6T]_F4.1_[A9T]_T4.1 (ssRNA)
RNA: UUUGAUUAAUAUGAUAUCGUUCUUUCUUGUAUUUUUUUCUUUCUCGAUAUCAUAUUAAUCUUU
B7: Ib_S2_P4E.1_K4.1_C4.1_H4.1_A4.1_[T7A]_F4.1_[A9C]_T4.1 (ssRNA)
RNA: UUUGAUUAAUAUGAUAUCGUUCUUUCUUGUAUAAUCUUCUUUCUCGAUAUCAUAUUAAUCUUU
B8: Ic_S2_P4E.1_K4.1_C4.1_H4.1_A4.1_[T7A]_F4.1_[T8A]_T4.1 (ssRNA)
RNA: UUUGAUUAAUAUGAUAUCGUUCUUUCUUGUAUAAAAUUCUUUCUCGAUAUCAUAUUAAUCUUU
B9: Ib_S2_P4E.1_K4.1_C4.1_H4.1_[T1G]_[A4C]_A4.1_F4.1_T4.1 (ssRNA)
RNA: UUUGAUUAAUAUGAUAUCGUUCUUUCUGGUCUAUUAUUCUUUCUCGAUAUCAUAUUAAUCUUU
B10: Ib_S2_P4E.1_K4.1_C4.1_H4.1_[T1C]_[A4G]_A4.1_F4.1_T4.1 (ssRNA)
RNA: UUUGAUUAAUAUGAUAUCGUUCUUUCUCGUGUAUUAUUCUUUCUCGAUAUCAUAUUAAUCUUU
B11: Ib_S2_P4E.1_K4.1_C4.1_H4.1_[T1A]_[G2C]_A4.1_F4.1_T4.1 (ssRNA)
RNA: UUUGAUUAAUAUGAUAUCGUUCUUUCUACUAUAUUAUUCUUUCUCGAUAUCAUAUUAAUCUUU
B12: Ib_S2_P4E.1_K4.1_C4.1_H4.1_A4.1_[A6T]_F4.1_[A9C]_T4.1 (ssRNA)
RNA: UUUGAUUAAUAUGAUAUCGUUCUUUCUUGUAUUUUCUUCUUUCUCGAUAUCAUAUUAAUCUUU
B13: Ib_S2_P4E.1_K4.1_C4.1_H4.1_A4.1_[A6C]_F4.1_[A9T]_T4.1 (ssRNA)
RNA: UUUGAUUAAUAUGAUAUCGUUCUUUCUUGUAUCUUUUUCUUUCUCGAUAUCAUAUUAAUCUUU
B14: Ib_S2_P4E.1_K4.1_C4.1_H4.1_[G2C]_[T3A]_A4.1_F4.1_T4.1 (ssRNA)
RNA: UUUGAUUAAUAUGAUAUCGUUCUUUCUUCAAUAUUAUUCUUUCUCGAUAUCAUAUUAAUCUUU
B15: Ib_S2_P4E.1_K4.1_C4.1_H4.1_[T1G]_[G2T]_A4.1_F4.1_T4.1 (ssRNA)
RNA: UUUGAUUAAUAUGAUAUCGUUCUUUCUGUUAUAUUAUUCUUUCUCGAUAUCAUAUUAAUCUUU
B16: Ib_S2_P4E.1_K4.1_C4.1_H4.1_A4.1_[T7C]_F4.1_[A9T]_T4.1 (ssRNA)
RNA: UUUGAUUAAUAUGAUAUCGUUCUUUCUUGUAUACUUUUCUUUCUCGAUAUCAUAUUAAUCUUU
B17: Ic_S2_P4E.1_K4.1_C4.1_H4.1_A4.1_[T7A]_F4.1_[A9T]_T4.1 (ssRNA)
RNA: UUUGAUUAAUAUGAUAUCGUUCUUUCUUGUAUAAUUUUCUUUCUCGAUAUCAUAUUAAUCUUU
B18: Ic_S2_P4E.1_K4.1_C4.1_H4.1_A4.1_[T5C]_F4.1_[A9C]_T4.1 (ssRNA)
RNA: UUUGAUUAAUAUGAUAUCGUUCUUUCUUGUACAUUCUUCUUUCUCGAUAUCAUAUUAAUCUUU
B19: Ib_S2_P4E.1_K4.1_C4.1_H4.1_A4.1_[T5A]_F4.1_[A9G]_T4.1 (ssRNA)
RNA: UUUGAUUAAUAUGAUAUCGUUCUUUCUUGUAAAUUGUUCUUUCUCGAUAUCAUAUUAAUCUUU
B20: Ib_S2_P4E.1_K4.1_C4.1_H4.1_A4.1_[A6C]_F4.1_[A9G]_T4.1 (ssRNA)
RNA: UUUGAUUAAUAUGAUAUCGUUCUUUCUUGUAUCUUGUUCUUUCUCGAUAUCAUAUUAAUCUUU
B21: Ic_S2_P4E.1_K4.1_C4.1_H4.1_A4.1_[T7A]_F4.1_[A9G]_T4.1 (ssRNA)
RNA: UUUGAUUAAUAUGAUAUCGUUCUUUCUUGUAUAAUGUUCUUUCUCGAUAUCAUAUUAAUCUUU
B22: Ib_S2_P4E.1_K4.1_C4.1_H4.1_[G2T]_[T3A]_A4.1_F4.1_T4.1 (ssRNA)
RNA: UUUGAUUAAUAUGAUAUCGUUCUUUCUUUAAUAUUAUUCUUUCUCGAUAUCAUAUUAAUCUUU
B23: Ic_S2_P4E.1_K4.1_C4.1_H4.1_A4.1_[T7G]_F4.1_[A9T]_T4.1 (ssRNA)
RNA: UUUGAUUAAUAUGAUAUCGUUCUUUCUUGUAUAGUUUUCUUUCUCGAUAUCAUAUUAAUCUUU
B24: Ia_S2_P4E.1_K4.1_C4.1_H4.1_[T1A]_A4.1_F4.1_T4.1 (ssRNA)
RNA: UUUGAUUAAUAUGAUAUCGUUCUUUCUAGUAUAUUAUUCUUUCUCGAUAUCAUAUUAAUCUUU
B25: Ia_S2_P4E.1_K4.1_C4.1_H4.1_[G2C]_A4.1_F4.1_T4.1 (ssRNA)
RNA: UUUGAUUAAUAUGAUAUCGUUCUUUCUUCUAUAUUAUUCUUUCUCGAUAUCAUAUUAAUCUUU
B26: Ib_S2_P4E.1_K4.1_C4.1_H4.1_[T1A]_[G2A]_A4.1_F4.1_T4.1 (ssRNA)
RNA: UUUGAUUAAUAUGAUAUCGUUCUUUCUAAUAUAUUAUUCUUUCUCGAUAUCAUAUUAAUCUUU
B27: Ib_S2_P4E.1_K4.1_C4.1_H4.1_A4.1_[A6G]_F4.1_[A9T]_T4.1 (ssRNA)
RNA: UUUGAUUAAUAUGAUAUCGUUCUUUCUUGUAUGUUUUUCUUUCUCGAUAUCAUAUUAAUCUUU
B28: Ib_S2_P4E.1_K4.1_C4.1_H4.1_A4.1_[A6G]_F4.1_[A9G]_T4.1 (ssRNA)
RNA: UUUGAUUAAUAUGAUAUCGUUCUUUCUUGUAUGUUGUUCUUUCUCGAUAUCAUAUUAAUCUUU
B29: Ib_S2_P4E.1_K4.1_C4.1_H4.1_A4.1_[T5A]_F4.1_[A9T]_T4.1 (ssRNA)
RNA: UUUGAUUAAUAUGAUAUCGUUCUUUCUUGUAAAUUUUUCUUUCUCGAUAUCAUAUUAAUCUUU
B30: Ib_S2_P4E.1_K4.1_C4.1_H4.1_[G2A]_[T3C]_A4.1_F4.1_T4.1 (ssRNA)
RNA: UUUGAUUAAUAUGAUAUCGUUCUUUCUUACAUAUUAUUCUUUCUCGAUAUCAUAUUAAUCUUU
B31: Ib_S2_P4E.1_K4.1_C4.1_H4.1_A4.1_[T5A]_F4.1_[A9C]_T4.1 (ssRNA)
RNA: UUUGAUUAAUAUGAUAUCGUUCUUUCUUGUAAAUUCUUCUUUCUCGAUAUCAUAUUAAUCUUU
B32: Ic_S2_P4E.1_K4.1_C4.1_H4.1_A4.1_[A6C]_F4.1_[A9C]_T4.1 (ssRNA)
RNA: UUUGAUUAAUAUGAUAUCGUUCUUUCUUGUAUCUUCUUCUUUCUCGAUAUCAUAUUAAUCUUU
B33: Ic_S2_P4E.1_K4.1_C4.1_H4.1_A4.1_[T7G]_F4.1_[A9G]_T4.1 (ssRNA)
RNA: UUUGAUUAAUAUGAUAUCGUUCUUUCUUGUAUAGUGUUCUUUCUCGAUAUCAUAUUAAUCUUU

For the data set, the target named is T1, PUF4 RNA-binding domain (Saccharomyces cerevisiae, UniProt P25339 537-888).
T1 sequence: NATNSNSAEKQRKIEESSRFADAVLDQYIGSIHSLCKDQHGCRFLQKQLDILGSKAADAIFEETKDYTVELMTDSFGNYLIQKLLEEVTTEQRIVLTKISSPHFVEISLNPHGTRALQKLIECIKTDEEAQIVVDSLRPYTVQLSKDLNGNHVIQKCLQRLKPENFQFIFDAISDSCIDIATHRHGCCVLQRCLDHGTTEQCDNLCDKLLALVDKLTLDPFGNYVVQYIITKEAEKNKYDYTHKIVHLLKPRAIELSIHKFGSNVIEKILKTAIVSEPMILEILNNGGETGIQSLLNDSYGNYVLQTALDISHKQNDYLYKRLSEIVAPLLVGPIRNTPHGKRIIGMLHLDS
Description: Mg; RNA-MaP; 20 mM Na-HEPES pH 7.4, 30 mM KOAc, 0.75 mM MgCl2, 0.1% Tween-20, 5% glycerol, 0.1 mg/mL BSA, 2 mM DTT; 25 C; 0.0125-409.6 nM protein. The note with it: tags: N-His6-TEV cleaved; C-SNAP kept, Cy3B-labelled; label: tethered on chip by stalled RNA polymerase.
Broadly, the Kd is the equilibrium constant for the complex coming apart. A high value points to lower affinity. B1 displayed a Kd of 18.8 nM.

B2 showed a Kd of 222 nM.

B3 had a Kd of 1.55 nM.

B4 displayed a Kd of 18.6 nM.

On to B5, for which the dissociation constant (Kd) is 18 nM.

Take B6: the Kd was found to be 9.83 nM.

Molecule B7 came in with a Kd of 12.3 nM.

With B8, the Kd is 16.9 nM.

As for B9, binding was characterised by a dissociation constant (Kd) of 1520 nM.

For the molecule B10, the Kd came to 7.32 nM.

In the case of B11, the Kd was determined as 174 nM.

As for B12, binding was put at a Kd of 20.5 nM.

With B13, binding was characterised by a dissociation constant (Kd) of 8.41 nM.

On to B14, for which the Kd was over 2300 nM.

Regarding B15, the Kd is 7.76 nM.

Consider B16, for which the Kd stood at 2.73 nM.

B17 had a Kd of 4.33 nM.

For B18, the affinity, expressed as Kd, was 2.72 nM.

As for B19, the Kd came to 9.22 nM.

B20 showed a Kd of 9.54 nM.

With B21, the Kd amounted to 5.97 nM.

B22 yielded a Kd of 2120 nM.

B23 had a Kd of 11.6 nM.

Molecule B24 came in with a Kd of 103 nM.

With B25, the Kd was found to be 151 nM.

Regarding B26, the Kd is 616 nM.

For B27, binding was characterised by a dissociation constant (Kd) of 18.3 nM.

Turning to B28, binding was characterised by a dissociation constant (Kd) of 26.5 nM.

B29 showed an equilibrium dissociation constant (Kd) of 11 nM.

Consider B30, for which the affinity, expressed as Kd, was 1430 nM.

In turn, B31 came in with a Kd of 17.1 nM.

As for B32, binding was put at a Kd of 14.5 nM.

B33 registered a Kd of 6.7 nM.
